How the values were obtained:
[1] = Western densitometry, % in media, 48 h; settings: control: wild type
[2] = secreted protein in media at 37 °C, Western; settings: glycan lost; control: wild type
[3] = Western blot of conditioned media; settings: control: untreated
[4] = AHA pulse-chase, intracellular protein; settings: glycan lost; control: wild type
[5] = Western densitometry, % in media; settings: glycan gained; control: wild type

| Protein | expression_or_secretion, other: percent of total protein in media ([1]; glycan lost) | degradation_or_half_life, half_life [2] | other results |
| --- | --- | --- | --- |
| human Rspo3: N137Q (protein) parent chain: MHLRLISWLFIILNFMEYIGSQNASRGRRQRRMHPNVSQGCQGGCATCSDYNGCLSCKPRLFFALERIGMKQIGVCLSSCPSGYYGTRYPDINKCTKCKADCDTCFNKNFCTKCKSGFYLHLGKCLDNCPEGLEANNHTMECVSIVHCEVSEWNPWSPCTKKGKTCGFKRGTETRVREIIQHPSAKGNLCPPTNETRKCTVQRKKCQKGERGKKGRERKRKKPNKGESKEAIPDSKSLESSKEIPEQRENKQQQKKRKVQDKQKSVSVSTVH | decreases, 44% vs 67% | no change, >48 vs >48 |  |
| human Rspo3: tunicamycin (protein) parent chain: MHLRLISWLFIILNFMEYIGSQNASRGRRQRRMHPNVSQGCQGGCATCSDYNGCLSCKPRLFFALERIGMKQIGVCLSSCPSGYYGTRYPDINKCTKCKADCDTCFNKNFCTKCKSGFYLHLGKCLDNCPEGLEANNHTMECVSIVHCEVSEWNPWSPCTKKGKTCGFKRGTETRVREIIQHPSAKGNLCPPTNETRKCTVQRKKCQKGERGKKGRERKRKKPNKGESKEAIPDSKSLESSKEIPEQRENKQQQKKRKVQDKQKSVSVSTVH |  |  | expression_or_secretion ([3]; glycan lost): decreases |
| human Rspo2: N160Q (protein) parent chain: MQFRLFSFALIILNCMDYSHCQGNRWRRSKRASYVSNPICKGCLSCSKDNGCSRCQQKLFFFLRREGMRQYGECLHSCPSGYYGHRAPDMNRCARCRIENCDSCFSKDFCTKCKVGFYLHRGRCFDECPDGFAPLEETMECVEGCEVGHWSEWGTCSRNNRTCGFKWGLETRTRQIVKKPVKDTILCPTIAESRRCKMTMRHCPGGKRTPKAKEKRNKKKKRKLIERAQEQHSVFLATDRANQ | decreases, 18% vs 34% | decreases, 12 vs 36 |  |
| human Rspo2: E136N (protein) parent chain: MQFRLFSFALIILNCMDYSHCQGNRWRRSKRASYVSNPICKGCLSCSKDNGCSRCQQKLFFFLRREGMRQYGECLHSCPSGYYGHRAPDMNRCARCRIENCDSCFSKDFCTKCKVGFYLHRGRCFDECPDGFAPLEETMECVEGCEVGHWSEWGTCSRNNRTCGFKWGLETRTRQIVKKPVKDTILCPTIAESRRCKMTMRHCPGGKRTPKAKEKRNKKKKRKLIERAQEQHSVFLATDRANQ |  |  | expression_or_secretion, other: percent of total protein in media ([1]; glycan gained): increases, two-fold vs 34% |
| human Rspo1 (R-spondin 1): N137Q (protein) parent chain: MRLGLCVVALVLSWTHLTISSRGIKGKRQRRISAEGSQACAKGCELCSEVNGCLKCSPKLFILLERNDIRQVGVCLPSCPPGYFDARNPDMNKCIKCKIEHCEACFSHNFCTKCKEGLYLHKGRCYPACPEGSSAANGTMECSSPAQCEMSEWSPWGPCSKKQQLCGFRRGSEERTRRVLHAPVGDHAACSDTKETRRCTVRRVPCPEGQKRRKGGQGRRENANRNLARKESKEAGAGSRRRKGQQQQQQQGTVGPLTSAGPA | decreases, 32% vs 56% | no change, ~48 vs >48 | degradation_or_half_life, half_life [4]: decreases, 0.6 vs 0.9 |
| human Rspo1 (R-spondin 1): Q163N/L165T (protein) parent chain: MRLGLCVVALVLSWTHLTISSRGIKGKRQRRISAEGSQACAKGCELCSEVNGCLKCSPKLFILLERNDIRQVGVCLPSCPPGYFDARNPDMNKCIKCKIEHCEACFSHNFCTKCKEGLYLHKGRCYPACPEGSSAANGTMECSSPAQCEMSEWSPWGPCSKKQQLCGFRRGSEERTRRVLHAPVGDHAACSDTKETRRCTVRRVPCPEGQKRRKGGQGRRENANRNLARKESKEAGAGSRRRKGQQQQQQQGTVGPLTSAGPA |  |  | expression_or_secretion, fold_change [5]: increases |
| human Rspo1 (R-spondin 1): tunicamycin (protein) parent chain: MRLGLCVVALVLSWTHLTISSRGIKGKRQRRISAEGSQACAKGCELCSEVNGCLKCSPKLFILLERNDIRQVGVCLPSCPPGYFDARNPDMNKCIKCKIEHCEACFSHNFCTKCKEGLYLHKGRCYPACPEGSSAANGTMECSSPAQCEMSEWSPWGPCSKKQQLCGFRRGSEERTRRVLHAPVGDHAACSDTKETRRCTVRRVPCPEGQKRRKGGQGRRENANRNLARKESKEAGAGSRRRKGQQQQQQQGTVGPLTSAGPA |  |  | expression_or_secretion ([3]; glycan lost): decreases |
| human Rspo1 (R-spondin 1): castanospermine (protein) parent chain: MRLGLCVVALVLSWTHLTISSRGIKGKRQRRISAEGSQACAKGCELCSEVNGCLKCSPKLFILLERNDIRQVGVCLPSCPPGYFDARNPDMNKCIKCKIEHCEACFSHNFCTKCKEGLYLHKGRCYPACPEGSSAANGTMECSSPAQCEMSEWSPWGPCSKKQQLCGFRRGSEERTRRVLHAPVGDHAACSDTKETRRCTVRRVPCPEGQKRRKGGQGRRENANRNLARKESKEAGAGSRRRKGQQQQQQQGTVGPLTSAGPA |  |  | expression_or_secretion ([3]; glycan changed form): decreases |

Source: publication PMC4926470
